Assay results taken from patent US20250388672A1 (Ablynx, published 2025).

Tests used:
human CD20 [1] = molecular target: T1, human CD20 (human, UniProt P11836 1-297); assay: flow cytometry on Raji cells, MCF (Mean PE)
T1 construct: whole, on cells; On Ramos or Raji B cells (natural) or on transfected CHO-K1 cells, as said under assay or readout; also called CD20 on Ramos cells; CD20 on Raji cells
T1 sequence (looked up): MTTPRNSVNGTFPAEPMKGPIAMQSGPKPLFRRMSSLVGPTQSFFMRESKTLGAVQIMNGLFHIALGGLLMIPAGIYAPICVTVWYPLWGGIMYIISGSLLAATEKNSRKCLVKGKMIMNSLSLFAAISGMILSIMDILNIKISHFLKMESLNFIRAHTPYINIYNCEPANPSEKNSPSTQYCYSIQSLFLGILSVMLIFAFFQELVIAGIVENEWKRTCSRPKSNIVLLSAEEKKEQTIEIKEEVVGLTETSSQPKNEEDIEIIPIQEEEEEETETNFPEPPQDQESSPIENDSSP

human CD20 [2] = molecular target: T1, human CD20; assay: flow cytometry on Ramos cells, MCF (Mean PE)
[3] = molecular target: T2, human TCR/CD3 complex on purified primary human T cells (human); assay: flow cytometry on purified primary human T cells
T2 construct: Natural complex on T cells isolated from buffy coats of healthy donors; also called hu T cells; purified primary T cells

[4] = molecular target: T3, human CD3 expressed on HEK293H cells (human, UniProt P20963 22-164); assay: flow cytometry on HEK293H cells expressing human CD3
T3 construct: also called HEK293H CD3; HEK293H human CD3
Source text: The parental HEK293H cell line was included as TCR/CD3 negative cell line.

T3 sequence (chain, as listed by the source limits assumed, chain 1 of 4): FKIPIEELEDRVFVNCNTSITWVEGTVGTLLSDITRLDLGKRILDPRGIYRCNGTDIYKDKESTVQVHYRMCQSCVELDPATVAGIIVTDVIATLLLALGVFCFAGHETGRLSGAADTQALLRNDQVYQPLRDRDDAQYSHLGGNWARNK
T3 sequence (chain, as listed by the source limits assumed, chain 2 of 4): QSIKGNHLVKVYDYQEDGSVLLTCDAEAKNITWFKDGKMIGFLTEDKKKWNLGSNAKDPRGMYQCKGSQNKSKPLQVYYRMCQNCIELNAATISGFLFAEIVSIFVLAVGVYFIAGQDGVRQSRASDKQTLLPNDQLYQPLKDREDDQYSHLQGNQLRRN
T3 sequence (chain, as listed by the source limits assumed, chain 3 of 4): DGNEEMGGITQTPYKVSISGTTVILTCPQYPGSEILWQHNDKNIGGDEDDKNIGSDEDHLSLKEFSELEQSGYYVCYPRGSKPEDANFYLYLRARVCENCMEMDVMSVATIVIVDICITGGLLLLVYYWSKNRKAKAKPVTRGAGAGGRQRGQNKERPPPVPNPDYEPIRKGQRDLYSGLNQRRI
T3 sequence (P20963 22-164 limits assumed, chain 4 of 4): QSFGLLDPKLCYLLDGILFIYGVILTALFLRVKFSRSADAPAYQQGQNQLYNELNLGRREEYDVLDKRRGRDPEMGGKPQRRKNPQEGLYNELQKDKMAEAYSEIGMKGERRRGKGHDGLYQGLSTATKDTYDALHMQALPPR
T2 sequence (delta, as listed by the source limits assumed, chain 1 of 4): as the sequence (chain, as listed by the source limits assumed, chain 1 of 4) above
T2 sequence (gamma, as listed by the source limits assumed, chain 2 of 4): as the sequence (chain, as listed by the source limits assumed, chain 2 of 4) above
T2 sequence (epsilon, as listed by the source limits assumed, chain 3 of 4): as the sequence (chain, as listed by the source limits assumed, chain 3 of 4) above
T2 sequence (zeta, as listed by the source limits assumed, chain 4 of 4): as the sequence (P20963 22-164 limits assumed, chain 4 of 4) above

B1: 20CD019C07 (VHH)
VHH: EVQLVESGGGLVQPGGSLRLSCTFSGGTFSSYTMGWFRQAPGKEREFVAEVRWGGVTTYSNSLKDRFSISEDSVKNAVYLQMNSLKPEDTAVYYCAAVRQMYMTVVPDYWGQGTLVTVSS
notes: also called the anti-CD20 Nanobody; human CD20 targeting Nanobody
- EC50 (read off the curve) (human CD20 [1]): ~20 nM
- EC50 (read off the curve) (human CD20 [2]): ~9 nM

B2: T0170117G03 (VHH)
VHH: EVQLVESGGGPVQAGGSLRLSCAASGRTYRGYSMGWFRQAPGKEREFVAAIVWSGGNTYYEDSVKGRFTISRDNAKNTMYLQMTSLKPEDSATYYCAAKIRPYIFKIAGQYDYWGQGTQVTVSS
notes: Monovalent anti-CD3 Nanobody, expressed in E. coli TG1 as triple Flag, His6-tagged protein; also called T0170PMP117G03; cluster A representative; not shown: C-terminal triple FLAG and His6 tag
- EC50 [3]: 22 nM

B3: T0170075G11 (VHH)
VHH: EVQLVESGGGPVQAGDSLRLSCAASGRTYRGYSMGWFRQVPGKEREFVAAIVWTDGNTYYEDSVKGRFTISRDITKNTMYLHMTSLKPEDSATYYCAAKIRPYIFKIAGQYDYWGQGTQVTVSS
notes: also called T0170PMP075G11; cluster A; not shown: C-terminal triple FLAG and His6 tag
- EC50 [4]: 84 nM
